Experimental data from the RNAGym collection of RNA variant scans (doi:10.1073/pnas.2313332121).
Fewer inactive variants are shown than the library holds.

B1: TPR 5TU (parent)
chain: GGAUCUUCUCGAUCUAACAAAAAAGACAAAUCUGCCACAAAGCUUGAGAGCAUCUUCGGAUGCAGAGGCGGCAGCCUUCGGUGGCGCGAUAGCGCCAACGUUCUCAACUAUGACACGCAAAACGCGUGCUCCGUUGAAUGGAGUUUAUCAUG

Variants of: B1
Assay: polymerase ribozyme fitness, log enrichment relative to wild type (log ratio); higher = more active; in vitro selection for triplet polymerase activity
In short: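 In triplicate, a single round of in vitro selection was run on each mutant library, PCR-built and transcribed, covering one subunit of a heterodimeric triplet polymerase ribozyme. Frozen incubation at −7 °C followed annealing with a biotinylated primer, partner subunit and triplets, and extended constructs were then gel-excised, streptavidin-captured and taken through RT-PCR. Fitness is the logarithm of genotype enrichment over wild-type enrichment, from inverse-variance-weighted replicate averages of Illumina-sequenced inputs and outputs. […] only genotypes with ≥10 input reads and ≥1 read per output were kept.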

Variant	polymerase ribozyme fitness (log ratio)
U53A C63U C69U A122U	-3.99
U53A A137U	≤ -4.2
U53G C87U A113U C116A G140U	≤ -4.2
C54A C85U	-1.86
C54G C57U C75A A97U G141C U145G	≤ -4.2
U53A G143C	-2.05
U53A G83C	-2.61
U53A C93U U130G	≤ -4.2
C54G A60G G81A C93G C118U	≤ -4.2
C54A U101A	-2.39
U53A G81A C85A C131U	-4.19
U53A A91G G124A U139G U146A	-3.5
C54G C96U A98G	-1.19
U53G G62C C85U U109C	≤ -4.2
A52U U55A	-1.7
U53A G100U	-3.41
U53A G80A U109A C123U A142G	-3.11
U53G U55A U148C	≤ -4.2
U53A G68U C76G U130A C132U G136A A142U	≤ -4.2
U53A G58C A150U	0.575
U53A U146G	-2.38

Variant	polymerase ribozyme fitness (log ratio)
U53G G117C A137G	-2.86
U53A C93A	-3.27
U53A G83A C118A	-1.88
U53A C95A C125U	-1.7
U53A C57U G143C	-3.52
C54A C57G U90G U139A G140U U146A	≤ -4.2
C54A C149G	-3.71
U53A U56G C57U A73G C87A G143A	≤ -4.2
C54G C79U G94C C96U A150G	≤ -4.2
U53A C93A U101C C125U C132U G140U A147C	≤ -4.2
C54A U61A G67A C75A G80U C96A	≤ -4.2
U53A C96U	-1.85
U53A C96A	-2.37
U53A A97C A113G	-3.54
C54G A64G A106U A107C U148A	≤ -4.2
C54A C79A G100A	≤ -4.2
C54G C95U	-2.35
C54G C95A	-1.74
C54G C114U G143C	-4.16
U53G A113C G133A	≤ -4.2
C54G C95G G133A	≤ -4.2

Variant	polymerase ribozyme fitness (log ratio)
U53A A97C	-0.583
U53A G94A	-1.61
U53A U135A	-1.55
U53A A98G U101G	-1.25
U53A G81A C95U A120C U144G	-1.05
U53A G92U A107U G136U	≤ -4.2
U53G G94C A115U	-3.49
U53A G58A G71A G126A U135G	≤ -4.2
U53G C87U A120C	-2.07
U53A U78C U90G C96G	≤ -4.2
U53A G58A A73U C75A A89U G92U A110U G126U G140A A147U	≤ -4.2
C54A C93G U135G	≤ -4.2
A52U U56A A66U C93A C123G G143A U146A	≤ -4.2
U53A G92A	-3.87
U53A C125U	-1.28
U53A A115U	-2.87
U53A A115G	-0.769
U53A C54U U55A A60U U77G C85U G92A G112A A121U	≤ -4.2
U53G G94U A98C	-2.12
C54A G58A G94A A98U	-0.552
U53G U77G C129A A147C	≤ -4.2

Variant	polymerase ribozyme fitness (log ratio)
U53A U56A	-2.45
U53A U56G	-1.11
U53G G92U G143U U144A	-3.84
U53A C93A C105A A119G	≤ -4.2
A52U U53G U61A A91G U130G U144G	≤ -4.2
C54G C103G	≤ -4.2
U53A G81C C87U C123A	-1.74
U53G A113U	-3.16
U53A A60G C96U A106U U139G	-2.41
C54A G92A G126U	-3.3
U53G C93A C95A A97U A98C G100U U130G G140U	≤ -4.2
C54G A97U A106C	-2.99
U53G G84A	-2.52
U53A G80U C96A G143A U146C C149G	≤ -4.2
C54A C69A G84A G88A	≤ -4.2
U53A C96U C99U G143C	≤ -4.2
U53G C72G C108G C116A	≤ -4.2
U53A G62A G86U	-2.24
C54A C99U	-1.85
U53G U90G G100A G124A U144C	≤ -4.2
U53A C63U C99G	-3.81
